B1: Cpn60α2 (At2g28000) (natural protein)
chain: not shown
notes: additional glycine-serine at the N-terminus, left by the cloning (printed in words); Cpn60α2, chloroplast chaperonin 60 alpha subunit of A. thaliana, At2g28000; 541 residues without the putative transit peptide; The vector codes for an octa-histidine tag followed by a TEV site at the amino terminus; also called α2 Cpn60; Cpn60α2 subunit; source: E. coli Rosetta (Novagen), purified based on the …
B2: Cpn60α1 (At5g18820) (natural protein)
chain: not shown
notes: additional glycine-serine at the N-terminus, left by the cloning (printed in words); Cpn60α1, chloroplast chaperonin 60 alpha subunit of A. thaliana, At5g18820; 543 residues without the putative transit peptide; The vector codes for an octa-histidine tag followed by a TEV site at the amino terminus; also called α1 Cpn60; Cpn60α1 subunit; source: E. coli Rosetta (Novagen), purified based on the …
B3: Cpn60β2 (At3g13470) (natural protein, A. thaliana, UniProt Q9LJE4 51-596, looked up)
chain: AAKELHFNKDGTTIRKLQTGVNKLADLVGVTLGPKGRNVVLESKYGSPRIVNDGVTVAREVELEDPVENIGAKLVRQAAAKTNDLAGDGTTTSVVLAQGFIAEGVKVVAAGANPVLITRGIEKTAKALVNELKLMSKEVEDSELADVAAVSAGNNHEVGSMIAEAMSKVGRKGVVTLEEGKSAENNLYVVEGMQFDRGYISPYFVTDSEKMSVEYDNCKLLLVDKKVTNARDLVGVLEDAIRGGYPILIIAEDIEQEALATLVVNKLRGTLKIAALKAPGFGERKSQYLDDIAILTGATVIREEVGLSLDKAGKEVLGNASKVVLTKEMTTIVGDGTTQEAVNKRVVQIRNLIEQAEQDYEKEKLNERIAKLSGGVAVIQVGAQTETELKEKKLRVEDALNATKAAVEEGIVVGGGCTLLRLASKVDAIKDTLENDEEKVGAEIVKRALSYPLKLIAKNAGVNGSVVSEKVLANDNVKFGYNAATGKYEDLMAAGIIDPTKVVRCCLEHAASVAKTFLMSDCVVVEIPEPEPVPAGNPMDNSGYGY
notes: Cpn60β2, chloroplast chaperonin 60 beta subunit of A. thaliana, At3g13470; also called β2 Cpn60; source: purified by a previously published protocol (Vitlin et al., 2011)

Columns and labels:
Cpn60β2 (At3g13470) = target: B3; assay: SEC; 150 μM α2, 100 μM β2 and 50 μM mt-cpn10 reconstituted with Mg-ATP (2 ml), Superdex 200 run at 4°C in 50 mM Tris-HCl pH 8, 300 mM NaCl, 5% glycerol; fractions on SDS-PAGE; conditions: both partners purified
Cpn60β3 (At1g55490) = target: T1, Cpn60β3 (At1g55490) (A. thaliana, UniProt P21240 55-600); assay: native gel or EMSA; reconstitution: 150 μM Cpn60α2 with 100 μM Cpn60β and 50 μM Cpn10 (GroES, mt-cpn10, Cpn20 or Cpn10(2)); 50 mM Tris-HCl pH 8, 0.3 M NaCl, 10 mM MgCl2, 16 mM KCl, 2 mM DTT, 5 mM ATP; 5 min at room temperature, 1 h at 30°C; 6% native polyacrylamide gel; conditions: both partners purified
T1 construct: Cpn60β3, chloroplast chaperonin 60 beta subunit of A. thaliana, At1g55490; also called β3 Cpn60; source: purified by a previously published protocol (Vitlin et al., 2011)

[1] = target: the molecule itself; assay: cross-linking; 20 μM purified protein, 0.1% glutaraldehyde, room temperature, 50 mM Na-HEPES (pH 8 in the legend, 7.5 in the methods), 10 mM MgCl2, 100 mM KCl; SDS-PAGE on a 2.4-12% gradient gel, Coomassie
[2] = target: the molecule itself; assay: SEC; 300 μM β2 and 150 μM mt-cpn10 reconstituted with Mg-ATP (600 μl), Superdex 200 run at room temperature; fractions on SDS-PAGE

T1 sequence (P21240 55-600): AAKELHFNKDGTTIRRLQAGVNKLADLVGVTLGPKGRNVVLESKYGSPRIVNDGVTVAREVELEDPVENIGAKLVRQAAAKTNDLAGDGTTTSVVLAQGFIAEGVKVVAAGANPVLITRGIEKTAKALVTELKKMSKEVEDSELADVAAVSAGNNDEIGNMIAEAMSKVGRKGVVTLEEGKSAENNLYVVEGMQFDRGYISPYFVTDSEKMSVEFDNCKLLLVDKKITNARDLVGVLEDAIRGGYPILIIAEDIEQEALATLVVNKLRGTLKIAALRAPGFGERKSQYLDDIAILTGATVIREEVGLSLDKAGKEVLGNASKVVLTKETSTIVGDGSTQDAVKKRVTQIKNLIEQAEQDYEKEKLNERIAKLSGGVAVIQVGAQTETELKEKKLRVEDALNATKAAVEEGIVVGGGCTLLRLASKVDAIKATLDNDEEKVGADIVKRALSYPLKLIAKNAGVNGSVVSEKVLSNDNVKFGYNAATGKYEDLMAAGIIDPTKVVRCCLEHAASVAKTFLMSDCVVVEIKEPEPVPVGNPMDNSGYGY

Binder: B1
binding result (Cpn60β2 (At3g13470)): binds | binding result (Cpn60β3 (At1g55490)): binds

Binder: B2
stoichiometry N [1]: 2

Binder: B3
binding result [2]: binds

Source: PMC5790771, “Reconstitution of Pure Chaperonin Hetero-Oligomer Preparations in Vitro by Temperature Modulation” (Frontiers in Molecular Biosciences, 2018)
